# According to publication PMC5652298 (Nature structural & molecular biology, 2017):
# Experiments:
# [1] = target: wild-type Shaker K+ channel with N-type inactivation removed (UniProt P08510); test: […]
# [2] = target: 3/4V478W mutant Shaker concatemer channel; test: […]
Molecule,Kd [1],Kd [2]
wild-type AgTx2 (from UniProt P46111 1-38) (peptide),2.5 nM,
GVPINVSCTGSPQCIKPCKDAGMRFGKCMNRKCHCTPK [wild-type AgTx2],,9.2 nM
